Test results from patent publication EP4574846A1.

Legend:
human VEGFA165 (human) [1] = target: human VEGFA165 (human) (UniProt P15692); assay: cell-based or functional assay
human VEGFA165 (human) [2] = target: human VEGFA165 (human) (UniProt P15692); assay: SPR Biacore 8K, VEGFA165 (GenScript) on CM5 at low immobilization, protein as analyte, 1:1 model

Sequence of human VEGFA165 (human) (P15692 other isoform, or with tags, fused parts or gaps limits assumed): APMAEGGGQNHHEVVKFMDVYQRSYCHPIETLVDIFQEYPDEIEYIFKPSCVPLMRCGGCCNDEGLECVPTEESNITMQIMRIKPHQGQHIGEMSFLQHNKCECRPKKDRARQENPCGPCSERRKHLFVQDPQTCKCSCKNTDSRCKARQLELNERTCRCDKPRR

| HUVEC proliferation inhibition IC50 (human VEGFA165 (human) [1]) | HUVEC proliferation inhibition Maximum inhibition rate (%) (human VEGFA165 (human) [1]) | Kd (human VEGFA165 (human) [2]) | koff (human VEGFA165 (human) [2]) | kon (human VEGFA165 (human) [2]) | Substance |
| --- | --- | --- | --- | --- | --- |
| 0.81 nM | 60% | 0.0584 nM | 9.57e-05 s⁻¹ | 1.64e+06 M⁻¹ s⁻¹ | Aflibercept (Fc fusion) |
|  | 0% |  |  |  | human IgG1 antibody (hIgG1 control) that binds to HIV |
